The source of these data is patent US20170100454A1 (VANDERBILT UNIVERSITY, published 2017).

In general, Kd refers to the free concentration of one partner at which half of the binding sites on the other are occupied at equilibrium, for simple one-to-one binding. Read a low Kd as a tighter complex.

Assay [1] has as its target GST-tagged Imp α5 ΔIBB (human) (UniProt P52294). Briefly: BLI, biotinylated N50 on SA biosensors; reference is GST-tagged Imp α1 ΔIBB.
The target is the same in assay [2]. Briefly: BLI (Octet RED96), biotinylated N50 on SA biosensors, GST-tagged Imp α5 ΔIBB at 50-200 nM, 2:1 model; column Imp α5 Major. A general note: BLI is a label-free optical method that tracks binding on a fibre tip over time.
Assay [3] has the same target. Briefly: BLI (Octet RED96), biotinylated N50 on SA biosensors, GST-tagged Imp α5 ΔIBB at 50-200 nM, 2:1 model; column Imp α5 Minor.
In assay [4] the target is T1, GAPDH (Homo sapiens, UniProt P04406).
T1 construct: endogenous, as present in the lysate; also called cellular protein GAPDH
T1 sequence (P04406 2-335 limits assumed): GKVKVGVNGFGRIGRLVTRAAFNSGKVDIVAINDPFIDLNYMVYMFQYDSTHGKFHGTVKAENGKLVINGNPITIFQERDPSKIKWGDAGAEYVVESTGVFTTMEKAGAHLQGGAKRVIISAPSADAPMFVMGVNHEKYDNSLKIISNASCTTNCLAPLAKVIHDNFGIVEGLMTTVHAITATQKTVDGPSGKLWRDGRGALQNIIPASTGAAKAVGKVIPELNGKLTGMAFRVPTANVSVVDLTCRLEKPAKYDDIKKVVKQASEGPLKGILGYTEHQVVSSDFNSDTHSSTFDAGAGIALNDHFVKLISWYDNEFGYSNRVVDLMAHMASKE
Nature of the assay: pull-down: biotinylated peptide in Jurkat T whole cell lysate, streptavidin-coated beads, immunoblot.

Assay [5] addresses T2, Endogenous human importin alpha 7 (human, UniProt O60684 1-536).
T2 construct: mature; also called Imp α7
Described as above.

The target in assay [6] is T3, Endogenous human importin beta 1 (human, UniProt Q14974 1-876).
T3 construct: mature; Endogenous protein in whole cell lysates, and in Hep-G2 cells for the functional rows; also called Imp β1; KPNB1
T3 sequence (Q14974 whole entry): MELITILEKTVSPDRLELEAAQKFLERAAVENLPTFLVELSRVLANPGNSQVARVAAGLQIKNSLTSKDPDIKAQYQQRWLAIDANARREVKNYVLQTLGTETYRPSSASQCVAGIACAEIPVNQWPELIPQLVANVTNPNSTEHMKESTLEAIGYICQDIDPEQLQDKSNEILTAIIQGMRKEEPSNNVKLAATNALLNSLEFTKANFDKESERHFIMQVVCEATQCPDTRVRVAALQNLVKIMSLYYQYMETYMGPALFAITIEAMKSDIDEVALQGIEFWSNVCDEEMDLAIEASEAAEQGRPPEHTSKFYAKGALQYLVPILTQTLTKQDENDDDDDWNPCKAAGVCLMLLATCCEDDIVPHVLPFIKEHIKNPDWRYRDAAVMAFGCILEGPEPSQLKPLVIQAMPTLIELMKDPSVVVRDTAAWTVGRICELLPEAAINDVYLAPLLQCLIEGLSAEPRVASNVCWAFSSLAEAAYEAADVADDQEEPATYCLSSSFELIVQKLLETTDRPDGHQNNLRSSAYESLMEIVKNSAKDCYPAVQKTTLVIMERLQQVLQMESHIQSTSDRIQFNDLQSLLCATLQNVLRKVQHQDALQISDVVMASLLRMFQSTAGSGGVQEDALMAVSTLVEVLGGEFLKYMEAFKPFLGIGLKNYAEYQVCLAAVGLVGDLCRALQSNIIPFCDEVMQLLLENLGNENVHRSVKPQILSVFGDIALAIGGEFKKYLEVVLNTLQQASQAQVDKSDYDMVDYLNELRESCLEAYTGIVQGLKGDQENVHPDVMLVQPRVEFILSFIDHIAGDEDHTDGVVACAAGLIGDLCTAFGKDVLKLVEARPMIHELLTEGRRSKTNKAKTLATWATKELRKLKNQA
Described as above.

Assay [7] addresses Endogenous human importin alpha 1 (human) (UniProt P52292). Nature of the assay: competition pull-down, 1.5 mg/mL Jurkat T cell lysate, 300 µM free N50 against biotinylated N50 on SA beads, quantitative immunoblot. A general note: Immunoblotting shows a protein as a band on a membrane.
The target of assay [8] is T4, Endogenous human importin alpha 4 (human, UniProt O00505 2-521).
T4 construct: mature; also called Imp α4
T4 sequence (looked up): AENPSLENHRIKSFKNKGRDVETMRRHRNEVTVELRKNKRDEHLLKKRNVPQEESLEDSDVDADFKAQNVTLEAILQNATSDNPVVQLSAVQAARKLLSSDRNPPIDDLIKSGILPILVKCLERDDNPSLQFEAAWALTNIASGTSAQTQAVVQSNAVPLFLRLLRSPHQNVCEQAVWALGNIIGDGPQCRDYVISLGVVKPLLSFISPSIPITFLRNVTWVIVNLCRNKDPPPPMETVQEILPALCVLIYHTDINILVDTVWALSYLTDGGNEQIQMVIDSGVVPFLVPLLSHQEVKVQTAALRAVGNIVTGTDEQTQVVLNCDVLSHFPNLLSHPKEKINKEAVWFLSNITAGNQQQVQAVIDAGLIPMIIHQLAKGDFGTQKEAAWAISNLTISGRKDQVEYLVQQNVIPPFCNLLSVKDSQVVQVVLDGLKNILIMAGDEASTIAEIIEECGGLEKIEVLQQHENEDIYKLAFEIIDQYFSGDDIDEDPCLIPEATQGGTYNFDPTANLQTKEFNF
Described as above.

In assay [9] the target is T5, Endogenous human importin alpha 5 (human, UniProt P52294 1-529 at identity 1.00)).
T5 construct: Endogenous protein in whole cell lysates, and in Hep-G2 cells for the functional rows; also called Imp α5; KPNA1
T5 sequence (P52294 1-529 S73N): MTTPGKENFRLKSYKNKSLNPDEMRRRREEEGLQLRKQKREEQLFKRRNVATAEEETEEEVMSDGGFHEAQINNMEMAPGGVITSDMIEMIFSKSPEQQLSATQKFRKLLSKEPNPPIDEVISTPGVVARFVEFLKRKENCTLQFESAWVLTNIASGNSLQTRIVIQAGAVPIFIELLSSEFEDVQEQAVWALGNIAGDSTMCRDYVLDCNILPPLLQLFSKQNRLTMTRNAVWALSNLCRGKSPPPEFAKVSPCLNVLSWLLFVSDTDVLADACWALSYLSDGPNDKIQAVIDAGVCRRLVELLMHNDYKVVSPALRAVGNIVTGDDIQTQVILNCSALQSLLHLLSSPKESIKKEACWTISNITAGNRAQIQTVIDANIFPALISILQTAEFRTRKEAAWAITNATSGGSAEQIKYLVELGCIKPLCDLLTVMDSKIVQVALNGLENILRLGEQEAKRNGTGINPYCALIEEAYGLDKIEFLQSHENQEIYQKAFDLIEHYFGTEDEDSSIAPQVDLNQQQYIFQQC
Briefly: competition pull-down at 1.5 mg/mL Jurkat T lysate protein, biotinylated N50 on streptavidin beads as competitor, quantitative immunoblot.

Assay [10] has as its target T6, Endogenous human importin alpha 3 (human, UniProt O00629 2-521).
T6 construct: mature; also called Imp α3
T6 sequence (looked up): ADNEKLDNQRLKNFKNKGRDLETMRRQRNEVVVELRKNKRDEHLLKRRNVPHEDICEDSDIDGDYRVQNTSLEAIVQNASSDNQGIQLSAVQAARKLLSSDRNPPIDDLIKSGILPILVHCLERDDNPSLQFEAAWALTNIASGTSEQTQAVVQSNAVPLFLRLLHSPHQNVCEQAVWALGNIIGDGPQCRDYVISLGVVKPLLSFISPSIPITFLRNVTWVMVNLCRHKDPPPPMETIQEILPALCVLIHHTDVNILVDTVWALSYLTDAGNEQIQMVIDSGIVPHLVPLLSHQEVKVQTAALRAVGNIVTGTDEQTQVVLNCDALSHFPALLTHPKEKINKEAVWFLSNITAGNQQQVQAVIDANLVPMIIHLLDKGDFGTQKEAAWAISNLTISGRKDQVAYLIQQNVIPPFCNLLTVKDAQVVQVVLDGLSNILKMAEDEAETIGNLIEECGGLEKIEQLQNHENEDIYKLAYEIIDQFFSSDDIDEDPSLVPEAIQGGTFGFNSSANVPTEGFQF
Nature of the assay: pull-down with biotinylated AR1 and SA beads from Jurkat T cell lysate, immunoblot.

For assay [11], the target named is T4, Endogenous human importin alpha 4. The assay is described as above.
Assay [12] has as its target T5, Endogenous human importin alpha 5. The assay is described as above.
The target of assay [13] is T2, Endogenous human importin alpha 7. The assay is described as above.
Assay [14] has as its target T6, Endogenous human importin alpha 3. Briefly: pull-down: biotinylated peptide in Jurkat T whole cell lysate, streptavidin-coated beads, immunoblot.
The target of assay [15] is T2, Endogenous human importin alpha 7. Nature of the assay: pull-down with biotinylated peptide and SA beads from whole cell lysate, immunoblot.
The target of assay [16] is T3, Endogenous human importin beta 1. The description is as above.
The target of assay [17] is T1, GAPDH. Briefly: pull-down: biotinylated peptide in Jurkat T whole cell lysate, streptavidin-coated beads, immunoblot [A].

Positions of bridges follow the written chain, without caps; N, C: chain ends. No end group written: not given here. *: point of attachment. Biotin = O=C1N[C@H]2[C@H](CS[C@H]2CCCCC(=O)*)N1

Chain of GST-tagged Imp α5 ΔIBB (human) (P52294 101-529, stated change not applied): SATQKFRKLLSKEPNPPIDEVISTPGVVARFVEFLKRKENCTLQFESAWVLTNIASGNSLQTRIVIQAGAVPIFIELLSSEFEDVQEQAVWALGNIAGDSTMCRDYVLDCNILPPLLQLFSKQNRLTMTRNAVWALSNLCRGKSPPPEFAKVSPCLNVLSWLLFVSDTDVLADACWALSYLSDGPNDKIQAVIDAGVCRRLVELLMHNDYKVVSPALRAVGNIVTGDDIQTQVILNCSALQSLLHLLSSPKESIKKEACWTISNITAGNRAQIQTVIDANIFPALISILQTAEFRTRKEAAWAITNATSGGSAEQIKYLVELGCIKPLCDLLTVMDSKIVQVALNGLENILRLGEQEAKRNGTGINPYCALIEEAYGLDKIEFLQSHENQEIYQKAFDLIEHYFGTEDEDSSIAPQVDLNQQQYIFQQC

For the molecule Biotinylated N50 peptide, the fold maximum response against Imp α1 in assay [1] was above 20 fold. For the same molecule, the figures for the Kd in assay [2] and in assay [3] were 73 nM and 140 nM, respectively.
For VELRKNKRDEHLLKRRNVPHE (also: biotinylated (position and linker not given here)) [Biotinylated AR3 peptide (auto-inhibitory region of Imp α3)], the binding result (with GAPDH [4]; in assay [5]; in assay [6]) was “no binding” throughout.
Take VELRKNKRDEHLLKKRNVPQE (also: biotinylated (position and linker not given here)) [Biotinylated AR4 peptide (auto-inhibitory region of Imp α4)]: the binding result (with GAPDH [4]; in assay [5]; in [6]) was “no binding” each time.

B1: Unlabeled N50 peptide (peptide)
peptide: VQRKRQKLMP
notes: also called free N50; non-biotinylated N50 peptide
As to B1, the percent reduction of band intensity in assay [7] and in assay [8] was 20% each time. Also, the “IC50 (read off the curve)” value in assay [9] was around 10000 nM.
VELRKAKKDDQMLKRRNVSSF (also: biotinylated (position and linker not given here)) [Biotinylated AR1 peptide (auto-inhibitory region of Imp α1)]: the binding result (in [10]; in [11]; in assay [12]; in [13]; with GAPDH [4]; in assay [6]) was “no binding” throughout.
LQLRKQKREEQLFKRRNVATA (also: biotinylated (position and linker not given here)) [Biotinylated AR5 peptide (auto-inhibitory region of Imp α5)]: the binding result (with GAPDH [4]; in [14]; in assay [5]; in [6]) was “no binding” throughout.
For the molecule IQLRKQKREQQLFKRRNVELI (also: biotinylated (position and linker not given here)) [Biotinylated AR7 peptide (auto-inhibitory region of Imp α7)], the binding result (with GAPDH [4]; in assay [6]) was “no binding” each time.
For the molecule Biotin-GGGGGCVQRKRQKLMPC (disulfide 6-17 (inferred), also called cyclized N50) [Biotinylated cN50.1 peptide], the binding result (in assay [15]; in [16]; with GAPDH [17]) was “no binding” each time.
